Test results from PMC9867772.

Molecular target: Anthrol reductase CbAR from Cercospora sp. JNU001 (Cercospora sp. JNU001)
Experiment: SEC; purified CbAR on gel filtration (Supplementary Fig. 1b, c); the column of the purification was Hiload 16/600 Superdex 200 pg in 25 mM Tris-HCl pH 8.0, 150 mM NaCl

Q: Which stoichiometry N does the source give for “Anthrol reductase CbAR from Cercospora sp. JNU001 (enzyme)” here?
A: Its stoichiometry N is 2.
